B1: H69A, Q7SID9 (parent)
chain: STGPVAPLPTPPNFPNDIALFQQAYQNWSKEIMLDATWVCSPKTPQDVVRLANWAHEHDYKIRPRGAMHGWTPLTVEKGANVEKVILADTMTHLNGITVNTGGPVATVTAGAGASIEAIVTELQKHDLGWANLPAPGVLSIGGALAVNAHGAALPAVGQTTLPGHTYGSLSNLVTELTAVVWNGTTYALETYQRNDPRITPLLTNLGRCFLTSVTMQAGPNFRQRCQSYTDIPWRELFAPKGADGRTFEKFVAESGGAEAIWYPFTEKPWMKVWTVSPTKPDSSNEVGSLGSAGSLVGKPPQAREVSGPYNYIFSDNLPEPITDMIGAINAGNPGIAPLFGPAMYEITKLGLAATNANDIWGWSKDVQFYIKATTLRLTEGGGAVVTSRANIATVINDFTEWFHERIEFYRAKGEFPLNGPVEIRCCGLDQAADVKVPSVGPPTISATRPRPDHPDWDVAIWLNVLGVPGTPGMFEFYREMEQWMRSHYNNDDATFRPEWSKGWAFGPDPYTDNDIVTNKMRATYIEGVPTTENWDTARARYNQIDPHRVFTNGFMDKLLP

“And” between values parts separate entries of the source, which are not always exact repeats. Identical values can stand only once.

Experimental findings from FireProtDB (doi:10.1110/ps.073137708) are described below.

Variants of B1 are the subject of the data set. As to conditions: Brevibacterium sterolicum; pH 7.5; 15 °C; Urea; Fluorescence; Potassium phosphate 50 mM; reversible: Yes (partial); structure 2I0K; whole UniProt chain shown.
For STGPVAPLPTPPNFPNDIALFQQAYQNWSKEIMLDATWVCSPKTPQDVVRLANWAHEHDYKIRPRGAMAGWTPLTVEKGANVEKVILADTMTHLNGITVNTGGPVATVTAGAGASIEAIVTELQKHDLGWANLPAPGVLSIGGALAVNAHGAALPAVGQTTLPGHTYGSLSNLVTELTAVVWNGTTYALETYQRNDPRITPLLTNLGRCFLTSVTMQAGPNFRQRCQSYTDIPWRELFAPKGADGRTFEKFVAESGGAEAIWYPFTEKPWMKVWTVSPTKPDSSNEVGSLGSAGSLVGKPPQAREVSGPYNYIFSDNLPEPITDMIGAINAGNPGIAPLFGPAMYEITKLGLAATNANDIWGWSKDVQFYIKATTLRLTEGGGAVVTSRANIATVINDFTEWFHERIEFYRAKGEFPLNGPVEIRCCGLDQAADVKVPSVGPPTISATRPRPDHPDWDVAIWLNVLGVPGTPGMFEFYREMEQWMRSHYNNDDATFRPEWSKGWAFGPDPYTDNDIVTNKMRATYIEGVPTTENWDTARARYNQIDPHRVFTNGFMDKLLP [H69A], the “denaturant midpoint (higher = more stable)” value is 2.9 M and 3.5 M and 2.7 M; the unfolding free energy is 1.53 kcal/mol and 1.36 kcal/mol and 1.2 kcal/mol.
